# Measured values reported in patent US20120316071A1 (published 2012).
# T1: rHuman Erythropoietin R/Fc Chimera, CF (R&D Systems Cat#963-ER) (human, UniProt P19235 25-250)
# T1 construct: Bought recombinant protein; also called EPO R; EPO R/Fc; Fc part of the bought chimera not given
# T1 sequence (looked up): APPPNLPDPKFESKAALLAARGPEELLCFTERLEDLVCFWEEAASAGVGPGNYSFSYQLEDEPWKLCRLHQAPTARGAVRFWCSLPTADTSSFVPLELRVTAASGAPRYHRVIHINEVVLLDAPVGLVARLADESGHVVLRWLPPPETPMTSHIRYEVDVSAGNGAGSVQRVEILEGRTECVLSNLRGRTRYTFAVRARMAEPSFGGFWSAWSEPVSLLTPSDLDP
# T2: rHuman Erythropoietin R/Fc Chimera, CF (human, UniProt P19235 25-250)
# T2 construct: Bought protein; also called EPO R; EPO R/Fc; Fc part of the bought chimera not given
# T2 sequence (looked up): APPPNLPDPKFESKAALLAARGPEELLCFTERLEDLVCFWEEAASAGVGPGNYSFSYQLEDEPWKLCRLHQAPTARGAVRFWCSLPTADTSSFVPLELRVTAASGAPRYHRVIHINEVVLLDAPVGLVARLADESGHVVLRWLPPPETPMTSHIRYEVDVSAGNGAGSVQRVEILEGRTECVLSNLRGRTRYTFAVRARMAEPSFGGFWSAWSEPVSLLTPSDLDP
# B1: Fab VH5-51_IGHD5-18*01>3_IGHJ4*01 G100K/G104T (H:KT) & V3-4_IGLJ1*01 V91A (Fab, V domains shown)
# VH: EVQLVQSGAEVKKPGESLKISCKGSGYSFTSYWIGWVRQMPGKGLEWMGIIYPGDSDTRYSPSFQGQVTISADKSISTAYLQWSSLKASDTAMYYCARRKYSYTYDYFDYWGQGTLVTVSS
# VL: QTVVTQEPSFSVSPGGTVTLTCGLSSGSVSTSYYPSWYQQTPGQAPRTLIYSTNTRSSGVPDRFSGSILGNKAALTITGAQADDESDYYCALYMGSGISYVFGTGTKVTVL
# notes: Fab; Expressed from Plasmid A (CH1, His6 and Flag tags) and Plasmid E (lambda CL); also called KT & V91A
# B2: Fab VH5-51_IGHD5-18*01>3_IGHJ4*01 G100K/G104T G24T/S28R/G35V & V3-4_IGLJ1*01 V91L/S96P (Fab, V domains shown)
# VH: EVQLVQSGAEVKKPGESLKISCKTSGYRFTSYWIVWVRQMPGKGLEWMGIIYPGDSDTRYSPSFQGQVTISADKSISTAYLQWSSLKASDTAMYYCARRKYSYTYDYFDYWGQGTLVTVSS
# VL: QTVVTQEPSFSVSPGGTVTLTCGLSSGSVSTSYYPSWYQQTPGQAPRTLIYSTNTRSSGVPDRFSGSILGNKAALTITGAQADDESDYYCLLYMGPGISYVFGTGTKVTVL
# notes: Fab made in E. coli; VH was cloned in Plasmid A (CH1, His6 and Flag tags) and VL in Plasmid E (lambda CL); also called H:KT TRV & L:LP
# B3: Fab VH5-51_IGHD5-18*01>3_IGHJ4*01 G100K/G104T (H:KT) & V3-4_IGLJ1*01 G23L (Fab, V domains shown)
# VH: EVQLVQSGAEVKKPGESLKISCKGSGYSFTSYWIGWVRQMPGKGLEWMGIIYPGDSDTRYSPSFQGQVTISADKSISTAYLQWSSLKASDTAMYYCARRKYSYTYDYFDYWGQGTLVTVSS
# VL: QTVVTQEPSFSVSPGGTVTLTCLLSSGSVSTSYYPSWYQQTPGQAPRTLIYSTNTRSSGVPDRFSGSILGNKAALTITGAQADDESDYYCVLYMGSGISYVFGTGTKVTVL
# notes: Fab (CH1 with His6/Flag tags from Plasmid A, lambda CL from Plasmid E); also called G100K/G104T & G23L
# B4: Fab VH5-51_IGHD5-18*01>3_IGHJ4*01 G100K/G104T G24T/S28R/G35V & V3-4_IGLJ1*01 V91L/S96P S52G (Fab, V domains shown)
# VH: EVQLVQSGAEVKKPGESLKISCKTSGYRFTSYWIVWVRQMPGKGLEWMGIIYPGDSDTRYSPSFQGQVTISADKSISTAYLQWSSLKASDTAMYYCARRKYSYTYDYFDYWGQGTLVTVSS
# VL: QTVVTQEPSFSVSPGGTVTLTCGLSSGSVSTSYYPSWYQQTPGQAPRTLIYGTNTRSSGVPDRFSGSILGNKAALTITGAQADDESDYYCLLYMGPGISYVFGTGTKVTVL
# notes: Fab made in E. coli; VH was cloned in Plasmid A (CH1, His6 and Flag tags) and VL in Plasmid E (lambda CL); also called H:KT TRV & L:LP S52G
# B5: Fab VH3-23_IGHD2-21*01>3_IGHJ6*01 I107A & V2-13_IGLJ2*01 (Fab, V domains shown)
# VH: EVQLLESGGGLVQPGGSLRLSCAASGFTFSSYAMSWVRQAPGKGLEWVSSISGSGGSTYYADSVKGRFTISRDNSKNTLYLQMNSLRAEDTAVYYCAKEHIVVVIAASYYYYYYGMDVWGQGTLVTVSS
# VL: SSELTQDPAVSVALGQTVRITCQGDSLRSYYASWYQQKPGQAPVLVIYGKNNRPSGIPDRFSGSSSGNTASLTITGAQAEDEADYYCNSRDSSGNHLVVFGGGTKLTVL
# notes: Tested as a Fab made in E. coli
# B6: Fab VH3-23_IGHD2-21*01>3_IGHJ6*01 S108A & V2-13_IGLJ2*01 (Fab, V domains shown)
# VH: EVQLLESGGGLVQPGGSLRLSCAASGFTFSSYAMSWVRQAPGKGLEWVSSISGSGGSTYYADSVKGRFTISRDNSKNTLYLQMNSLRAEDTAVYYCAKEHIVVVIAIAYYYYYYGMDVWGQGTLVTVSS
# VL: SSELTQDPAVSVALGQTVRITCQGDSLRSYYASWYQQKPGQAPVLVIYGKNNRPSGIPDRFSGSSSGNTASLTITGAQAEDEADYYCNSRDSSGNHLVVFGGGTKLTVL
# notes: as for B5
# B7: Fab VH1-46_IGHD6-6*01_IGHJ1*01 S102A/S103P/S104F/H111F (H:APFF) & L6_IGKJ1*01 S28N/S30D/S31H (L:NDH) (Fab, V domains shown)
# VH: QVQLVQSGAEVKKPGASVKVSCKASGYTFTSYYMHWVRQAPGQGLEWMGIINPSGGSTSYAQKFQGRVTMTRDTSTSTVYMELSSLRSEDTAVYYCAREEYAPFSAEYFQFWGQGTLVTVSS
# VL: EIVLTQSPATLSLSPGERATLSCRASQNVDHYLAWYQQKPGQAPRLLIYDASNRATGIPARFSGSGSGTDFTLTISSLEPEDFAVYYCQQRSNWPPWTFGQGTKVEIKR
# notes: Fab; also called H:APFF & L:NDH; APFF-NDH
# B8: Fab VH1-46_IGHD6-6*01_IGHJ1*01 S102A/S103P/S104F/H111F/G56A (H:APFF G56A) & L6_IGKJ1*01 S28N/S30D/S31H (L:NDH) (Fab, V domains shown)
# VH: QVQLVQSGAEVKKPGASVKVSCKASGYTFTSYYMHWVRQAPGQGLEWMGIINPSGASTSYAQKFQGRVTMTRDTSTSTVYMELSSLRSEDTAVYYCAREEYAPFSAEYFQFWGQGTLVTVSS
# VL: EIVLTQSPATLSLSPGERATLSCRASQNVDHYLAWYQQKPGQAPRLLIYDASNRATGIPARFSGSGSGTDFTLTISSLEPEDFAVYYCQQRSNWPPWTFGQGTKVEIKR
# notes: Fab; also called H:APFF G56A & L:NDH
# Columns and labels:
# [1] = molecular target: T3, rHuman CD44/Fc Chimera, CF (R&D Systems Cat#3660-CD) (human, UniProt P16070 21-220); test: ECL multispot (MSD) binding assay, antigen spotted on plate, Fab 0.04 uM;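 also: purified Fab incubated 1 h at 20 °C on antigen spots, detected via TAG-labelled antibody, ECL read against each well's blank, with signal-to-blank of at least 4 scored as binder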
# T3 construct: Bought recombinant protein; Fc part of the bought chimera not given
# [2] = molecular target: T4, rHuman EGF R/Fc Chimera, CF (R&D Systems Cat#344-ER) (human, UniProt P00533 25-645); test: as above
# T4 construct: Bought recombinant protein; also called epidermal growth factor receptor; Fc part of the bought chimera not given
# [3] = molecular target: T5, rHuman Notch-1/Fc Chimera, CF (R&D Systems Cat#3647-TK) (human, UniProt P46531 19-526); test: as above
# T5 construct: Bought recombinant protein; Fc part of the bought chimera not given
# [4] = molecular target: T1, rHuman Erythropoietin R/Fc Chimera, CF …; test: as above
# [5] = molecular target: T6, rHuman HGF R/c-MET/Fc Chimera, CF (R&D Systems Cat#358-MT/CF) (human, UniProt P08581 25-932); test: as above
# T6 construct: Bought recombinant protein; also called HGF R/Fc; hepatocyte growth factor receptor; Fc part of the bought chimera not given
# [6] = molecular target: T7, Recombinant Human DLL4 (R&D Systems Cat#1506-D4/CF) (human, UniProt Q9NR61 27-524); test: as above
# T7 construct: Bought recombinant protein; also called delta-like protein 4; rHuman DLL4
# [7] = molecular target: T8, rHuman P-Cadherin/Fc Chimera, CF (R&D Systems Cat#861-PC) (human, UniProt P22223 108-654); test: as above
# T8 construct: Bought recombinant protein; Fc part of the bought chimera not given
# [8] = molecular target: T9, rHuman ErbB2/Fc Chimera, CF (R&D Systems Cat#1129-ER) (human, UniProt P04626 23-652); test: as above
# T9 construct: Bought recombinant protein; also called human epidermal growth factor 2 receptor; Fc part of the bought chimera not given
# [9] = molecular target: T10, Recombinant Human DLL4 (delta-like protein 4) (human, UniProt Q9NR61 27-524); test: SPR, Fab on recombinant human DLL4; column head x10^5 applied
# T10 construct: Bought recombinant protein; also called rHuman DLL4; Delta-like 4
# [10] = molecular target: T10, Recombinant Human DLL4 (delta-like …); test: SPR, Fab on recombinant human DLL4
# [11] = molecular target: T10, Recombinant Human DLL4 (delta-like …); test: SPR, Fab on recombinant human DLL4; column head x10^-3 applied
# [12] = molecular target: T11, Recombinant Human DLL4 (delta-like protein 4) (human, UniProt Q9NR61 27-524); test: ELISA, Fab on plate-coated recombinant human DLL4
# T11 construct: also called rHuman DLL4; Delta-like 4
# [13] = molecular target: T12, rHuman CD44/Fc Chimera, CF (human, UniProt P16070 21-220); test: ECL multispot (MSD) binding assay, antigen spotted on plate, 100 nM Fab
# T12 construct: Bought protein; Fc part of the bought chimera not given
# [14] = molecular target: T13, rHuman Notch-1/Fc Chimera, CF (human, UniProt P46531 19-526); test: as above
# T13 construct: Bought protein; Fc part of the bought chimera not given
# [15] = molecular target: T2, rHuman Erythropoietin R/Fc Chimera, CF; test: as above
# [16] = molecular target: T14, rHuman ErbB2/Fc Chimera, CF (human, UniProt P04626 23-652); test: as above
# T14 construct: Bought protein; also called human epidermal growth factor 2 receptor; Fc part of the bought chimera not given
# [17] = molecular target: T15, rHuman P-Cadherin/Fc Chimera, CF (human, UniProt P22223 108-654); test: as above
# T15 construct: Bought protein; Fc part of the bought chimera not given
# [18] = molecular target: T16, rHuman EGF R/Fc Chimera, CF (human, UniProt P00533 25-645); test: as above
# T16 construct: Bought protein; also called epidermal growth factor receptor; Fc part of the bought chimera not given
# [19] = molecular target: T17, rHuman IGF-1 sR, (IGF-1 sR), CF (human, UniProt P08069 31-932); test: as above
# T17 construct: The column head prints 'IGF-1'; The antigen panel of the assay holds the soluble IGF-1 receptor, not the ligand; also called insulin-like growth factor-1 soluble receptor
# [20] = molecular target: T18, Recombinant Human DLL4 (R&D Systems Cat#1506-D4/CF) (human, UniProt Q9NR61 27-524); test: ELISA and 96-well plate ECL
# T18 construct: bought recombinant protein; also called rHuman DLL4; delta-like protein 4
# T6 sequence (P08581 25-932, change not shown): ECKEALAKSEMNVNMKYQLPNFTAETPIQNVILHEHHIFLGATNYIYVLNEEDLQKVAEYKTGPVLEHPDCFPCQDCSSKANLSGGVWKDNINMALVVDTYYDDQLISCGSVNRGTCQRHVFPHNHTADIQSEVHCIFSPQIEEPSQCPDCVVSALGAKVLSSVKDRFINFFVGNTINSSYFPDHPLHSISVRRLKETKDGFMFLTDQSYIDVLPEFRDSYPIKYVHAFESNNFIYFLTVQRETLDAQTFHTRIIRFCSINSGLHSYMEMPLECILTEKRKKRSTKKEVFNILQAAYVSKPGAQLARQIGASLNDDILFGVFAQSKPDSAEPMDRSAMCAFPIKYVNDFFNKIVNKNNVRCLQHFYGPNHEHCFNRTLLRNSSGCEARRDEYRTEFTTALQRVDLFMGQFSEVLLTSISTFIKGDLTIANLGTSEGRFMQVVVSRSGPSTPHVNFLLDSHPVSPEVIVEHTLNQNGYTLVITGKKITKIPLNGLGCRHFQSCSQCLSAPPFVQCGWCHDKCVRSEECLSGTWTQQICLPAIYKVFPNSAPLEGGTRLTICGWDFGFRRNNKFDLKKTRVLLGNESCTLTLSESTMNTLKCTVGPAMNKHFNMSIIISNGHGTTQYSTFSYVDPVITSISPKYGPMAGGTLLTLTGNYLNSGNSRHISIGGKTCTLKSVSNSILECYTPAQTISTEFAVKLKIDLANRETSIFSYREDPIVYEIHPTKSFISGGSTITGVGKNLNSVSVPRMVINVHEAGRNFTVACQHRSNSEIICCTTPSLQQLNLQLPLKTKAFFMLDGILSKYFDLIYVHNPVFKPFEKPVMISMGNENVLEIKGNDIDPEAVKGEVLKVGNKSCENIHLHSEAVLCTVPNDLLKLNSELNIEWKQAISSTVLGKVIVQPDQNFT
binder,measurement,setting,value
B1,ECL signal,[1],632
same,ECL signal,[2],833
same,ECL signal,[3],682
same,ECL signal,[4],675
same,ECL signal,[5],1110
same,ECL signal,[6],33400
same,ECL signal,[7],484
same,ECL signal,[8],1120
B2,kon,[9],1.1e+07 M⁻¹ s⁻¹
same,Kd,[10],3.3 nM
same,koff,[11],0.036 s⁻¹
B3,ELISA signal,[12],0.1
B4,kon,[9],2.96e+06 M⁻¹ s⁻¹
same,Kd,[10],5 nM
same,koff,[11],0.0147 s⁻¹
B5,ECL signal/blank ratio (quantity not given),[13],1.5
same,ECL signal/blank ratio (quantity not given),[14],2.7
same,ECL signal/blank ratio (quantity not given),[15],43.6
same,ECL signal/blank ratio (quantity not given),[16],4.8
same,ECL signal/blank ratio (quantity not given),[17],19.6
same,ECL signal/blank ratio (quantity not given),[18],4.3
same,ECL signal/blank ratio (quantity not given),[19],1.1
B6,ECL signal/blank ratio (quantity not given),[13],1.3
same,ECL signal/blank ratio (quantity not given),[14],1.5
same,ECL signal/blank ratio (quantity not given),[15],9.5
same,ECL signal/blank ratio (quantity not given),[16],1.9
same,ECL signal/blank ratio (quantity not given),[17],4.8
same,ECL signal/blank ratio (quantity not given),[18],2
same,ECL signal/blank ratio (quantity not given),[19],1.2
B7,fold affinity against the parent antibody APFF mutant,[20],4 fold
B8,fold affinity against the H:APFF & L:wt parental antibody mutant,[20],8 fold
